Source: CN108203464A (GENSCRIPT NANJING CO LTD, dated 2018)
Blank lines part the entries; values can stand above or below the binder they belong to.

Experiments:
[1] = target: T1, 重组蛋白PD-1-Fc (GenScript, Z03370): human PD-1 extracellular domain fused to human IgG1 Fc (human, UniProt Q15116 25-170); assay: indirect ELISA, PD-1-Fc coated at 0.5 μg/ml
T1 construct: extracellular domain; Bought reagent (GenScript Z03370); also called PD-1-Fc重组蛋白; PD-1-Fc融合蛋白; not shown: human IgG1 Fc segment

[2] = target: human PD-1 expressed on cells (human, UniProt Q15116 25-288); assay: cell-based or functional assay
[3] = target: T2, 重组人PD-1蛋白 (recombinant human PD-1 protein) (human, UniProt Q15116 25-167, limits assumed); assay: competition ELISA: human PD-1 coated, biotin-PD-L1-Fc 0.15 μg/ml as competitor
T2 construct: also called 重组蛋白PD-1
T2 sequence (Q15116 25-167 limits assumed): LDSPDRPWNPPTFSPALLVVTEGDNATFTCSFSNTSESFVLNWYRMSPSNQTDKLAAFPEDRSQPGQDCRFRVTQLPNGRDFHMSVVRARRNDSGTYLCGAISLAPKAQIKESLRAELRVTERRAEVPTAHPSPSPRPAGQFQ

Chain of human PD-1 expressed on cells (Q15116 25-288): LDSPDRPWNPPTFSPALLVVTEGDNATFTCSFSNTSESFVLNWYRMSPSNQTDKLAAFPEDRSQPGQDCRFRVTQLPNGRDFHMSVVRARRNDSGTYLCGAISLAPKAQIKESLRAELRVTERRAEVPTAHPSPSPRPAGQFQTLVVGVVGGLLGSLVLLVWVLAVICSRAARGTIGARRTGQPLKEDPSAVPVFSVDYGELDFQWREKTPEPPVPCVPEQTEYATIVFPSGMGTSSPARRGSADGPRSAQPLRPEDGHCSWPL
T1 sequence (Q15116 25-170 limits assumed, one chain of several): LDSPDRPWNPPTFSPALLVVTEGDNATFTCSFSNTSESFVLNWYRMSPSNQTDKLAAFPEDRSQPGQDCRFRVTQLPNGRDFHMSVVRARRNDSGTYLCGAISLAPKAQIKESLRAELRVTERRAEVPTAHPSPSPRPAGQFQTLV

EC50 [1]: 8.72 ng/mL | IL-2 secretion, mixed lymphocyte reaction (CD4+ T cells + allogeneic dendritic cells), EC50 [2]: 1.12 μg/ml | RLU, NFAT-RE reporter effector cells (PD-1) co-cultured with PD-L1 target cells, EC50 [2]: 1.42 µg/mL | IC50 [3]: 0.366 µg/mL
B1: 154G5A5B7 (antibody, V domains shown)
VH: QVQLKESGPGLVAPSQSLSITCTVSGFSLTVYGVNWVRQPPGKGLEWLGMIWGDGTTDYNSALKSRLIINKDNSKSQVFLKMNSLQTDDTARYYCARDDYGTFLYWGQGTLVTVSA
VL: DIVMSQSPSSLAVSAGEKVTMSCKSSQSLLNSRTRKNYLAWYQQKPGQSPKLLIFWASTRESGVPDRFTGSVSGTDFTLTISSVQAEDLAVYYCKQSYTLRTFGGGTKLEIK

EC50 [1]: 6.81 ng/mL | IL-2 secretion, mixed lymphocyte reaction (CD4+ T cells + allogeneic dendritic cells), EC50 [2]: 0.064 μg/ml | RLU, NFAT-RE reporter effector cells (PD-1) co-cultured with PD-L1 target cells, EC50 [2]: 1.13 µg/mL | IC50 [3]: 0.493 µg/mL
B2: 1H10C4D4 (antibody, V domains shown)
VH: EVKLVESGGGLVKPGGSLKLSCAASGFTFSSYDMSWVRQTPDKRLEWVATISGGGSYTYYPDSVKGRFTISRDNAKNNLYLQMSSLRSEDTALYYCGSPYGKYGMEYWGQGTSVTVSS
VL: DIVMTQSHKFMSTSVGDRVSITCKASQDVGSVVAWYQQKPGQSPKLLIYWASTRHTGVPDRFTGSGSGTDFTLTISNVQSEDLADYFCQQYSSYPLTFGSGTKLELK
notes: Detected with goat anti-mouse IgG

EC50 [1]: 4.65 ng/mL | IL-2 secretion, mixed lymphocyte reaction (CD4+ T cells + allogeneic dendritic cells), EC50 [2]: 0.929 μg/ml | RLU, NFAT-RE reporter effector cells (PD-1) co-cultured with PD-L1 target cells, EC50 [2]: 1.01 µg/mL | IC50 [3]: 0.429 µg/mL
B3: 2E5E4D11 (antibody, V domains shown)
VH: EVKLVESGGVLVQPGGSLKLSCAASGFTFSSYTMSWVRQTPEKRLEWVAYISGGGGDTYYPDTVKGRFTISRDNAKNTLYLQMNSLKSGDTAMYYCARHGYDAACFAYWGQGTLVTVSA
VL: DIVMTQSHKFMSTSVGDRVSFTCKASQDVNTAVAWYQQKPGQSPKLLIYWASTRHTGVPDRFTGSGSGTDYTLTISSVQAEDLALYYCQQHYSIPWTVGGGTKLEIK
notes: I took the two as the same clone (likely a misprint); also called 2E5E4E11
